In paper PMC7560960 (Cellular microbiology, 2018):

T1: recombinant human E-Cad (Gln23 - Pro621 fused to human IgG Fc) (human, UniProt P12830 23-621)
T1 sequence (looked up): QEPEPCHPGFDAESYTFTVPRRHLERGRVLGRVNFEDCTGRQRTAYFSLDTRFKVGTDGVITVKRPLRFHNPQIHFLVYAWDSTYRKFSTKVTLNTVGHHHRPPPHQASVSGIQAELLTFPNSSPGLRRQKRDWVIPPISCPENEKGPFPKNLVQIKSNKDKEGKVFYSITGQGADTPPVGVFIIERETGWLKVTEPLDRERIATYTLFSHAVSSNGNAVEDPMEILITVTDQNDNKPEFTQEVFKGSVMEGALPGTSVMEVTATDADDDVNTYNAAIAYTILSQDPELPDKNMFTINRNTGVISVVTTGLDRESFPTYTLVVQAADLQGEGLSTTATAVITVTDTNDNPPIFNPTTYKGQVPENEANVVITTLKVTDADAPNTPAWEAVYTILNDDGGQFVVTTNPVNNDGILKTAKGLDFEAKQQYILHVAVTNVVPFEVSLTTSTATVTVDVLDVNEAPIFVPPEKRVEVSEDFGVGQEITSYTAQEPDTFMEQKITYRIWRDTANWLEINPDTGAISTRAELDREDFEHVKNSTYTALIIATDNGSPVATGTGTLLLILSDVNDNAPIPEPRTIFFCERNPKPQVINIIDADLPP

T2: recombinant human VE-cad (Asp48-Gln593 fused to human IgG Fc) (human, UniProt P33151 48-593)
T2 sequence (looked up): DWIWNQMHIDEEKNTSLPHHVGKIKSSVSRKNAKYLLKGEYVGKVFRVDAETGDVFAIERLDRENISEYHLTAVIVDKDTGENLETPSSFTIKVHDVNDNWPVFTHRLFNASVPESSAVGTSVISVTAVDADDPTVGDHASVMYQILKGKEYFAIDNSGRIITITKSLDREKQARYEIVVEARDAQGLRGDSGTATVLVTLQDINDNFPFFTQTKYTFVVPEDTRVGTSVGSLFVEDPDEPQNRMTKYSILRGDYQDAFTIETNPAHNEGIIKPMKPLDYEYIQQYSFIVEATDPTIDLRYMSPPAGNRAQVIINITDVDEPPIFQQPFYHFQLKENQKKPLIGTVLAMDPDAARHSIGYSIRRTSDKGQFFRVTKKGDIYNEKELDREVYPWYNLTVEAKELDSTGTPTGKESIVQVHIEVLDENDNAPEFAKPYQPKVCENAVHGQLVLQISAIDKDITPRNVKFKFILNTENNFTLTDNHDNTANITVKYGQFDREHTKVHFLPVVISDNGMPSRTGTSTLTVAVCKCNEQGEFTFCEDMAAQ

B1: recombinant LIC10831, histidine tag removed (natural protein)
chain: EEPGTYRDLTKALQNPLEVRVLDLSRQELKTLPIEIGKLKNLQRLYLHYNQLTVLPQEIEQLKNLQLLYLRSNRLTTLPKEIEQLKNLQVLDLGSNQLTVLPQEIEQLKNLQLLYLHSNRLTTLSKDIEQLQNLKSLDLSNNQLTTLPNEIEQLKNLKSLYLSENQFATFPKEIGQLQNLKVLFLNNNQITILPNEIAKLKKLQYLYLSDNQLITLPKEIEQLKNLQTLDLSYNQLTILPKEVGQLENLQTLDLRNNQLKTLPKEIEQLKNLQTLFLSNNQLTILPQEIGKLKNLLWLSLVYNQLTTLPNEIEQLKNLQTLYLNNNQFSSQEKKRIRKLLPKCQIYFD

Experiments:
[1] = target: E-cadherin (Homo sapiens) (UniProt P12830); details: cited from earlier work
[2] = target: T1, recombinant human E-Cad (Gln23 - Pro621 …); assay: SPR
[3] = target: T2, recombinant human VE-cad (Asp48-Gln593 …); assay: SPR

E-cadherin (Homo sapiens), sequence (P12830 155-709): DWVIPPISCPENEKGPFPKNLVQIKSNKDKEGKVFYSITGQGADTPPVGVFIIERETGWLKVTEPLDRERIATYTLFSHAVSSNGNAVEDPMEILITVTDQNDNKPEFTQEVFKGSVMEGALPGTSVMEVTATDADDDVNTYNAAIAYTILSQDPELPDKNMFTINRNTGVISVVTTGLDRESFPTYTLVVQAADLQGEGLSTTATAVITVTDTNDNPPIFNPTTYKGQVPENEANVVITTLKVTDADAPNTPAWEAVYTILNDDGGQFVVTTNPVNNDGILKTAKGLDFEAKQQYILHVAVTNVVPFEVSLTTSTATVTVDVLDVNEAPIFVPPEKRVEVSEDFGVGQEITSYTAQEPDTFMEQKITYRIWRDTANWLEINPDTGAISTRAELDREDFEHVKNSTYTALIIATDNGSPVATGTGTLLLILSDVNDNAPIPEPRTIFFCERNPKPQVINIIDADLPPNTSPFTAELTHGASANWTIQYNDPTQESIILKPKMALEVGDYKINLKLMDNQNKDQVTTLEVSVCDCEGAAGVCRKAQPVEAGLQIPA

Molecule	Kd [1] [µM]	Kd [2] [µM]	Kd [3] [µM]
InlA (from UniProt P0DJM0)	8		
B1		2.3	5.8
